Experiment [1] deals with T1, recombinant human CEACAM6 Fc-tag protein (human, UniProt P40199 35-320, limits assumed).
T1 construct: also called huCEACAM6 (Octet); not shown: Fc tag
T1 sequence (looked up): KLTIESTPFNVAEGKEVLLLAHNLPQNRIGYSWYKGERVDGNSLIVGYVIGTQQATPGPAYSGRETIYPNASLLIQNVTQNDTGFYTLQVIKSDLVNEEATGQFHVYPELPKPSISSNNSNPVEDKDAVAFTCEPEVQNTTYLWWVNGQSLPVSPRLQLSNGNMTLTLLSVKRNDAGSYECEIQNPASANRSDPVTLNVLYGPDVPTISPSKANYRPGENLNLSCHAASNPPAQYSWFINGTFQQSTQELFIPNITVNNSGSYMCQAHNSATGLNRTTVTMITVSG
As to the kind of experiment: Octet (BLI), antibody on AHC sensor, antigen in solution. As for the experimental part:
Binding kinetics of recombinant anti-CEACAM5/6 antibodies to CEACAM5 and CEACAM6 were analyzed by Octet. In Octet analysis, recombinant human CEACAM5 Fc-tag protein (#Uniprot P06731) or CEACAM6 Fc-tag protein (Uniprot P40199) was serially diluted with 1×kinetic buffer (Fortebio). Anti-CEACAM5/6 dual-binding antibodies were diluted to 5 μg/mL. Then diluted antibodies, antigen and regeneration buffer (10 mM glycine pH 1.75) were added to 96-well plates (Greiner). Rate constants for association and dissociation were measured using AHC sensor (Fortebio). The sensor surface was regenerated after each binding experiment with regeneration buffer. The traces were processed using ForteBio Data Analysis Software (version 8.0, Pall ForteBio, CA, USA).

Experiment [2] has as its target T2, human CEACAM6 on 293T cells (293T-huCEACAM6 cells) (human, UniProt P40199 35-320).
T2 construct: whole, on cells
T2 sequence (looked up): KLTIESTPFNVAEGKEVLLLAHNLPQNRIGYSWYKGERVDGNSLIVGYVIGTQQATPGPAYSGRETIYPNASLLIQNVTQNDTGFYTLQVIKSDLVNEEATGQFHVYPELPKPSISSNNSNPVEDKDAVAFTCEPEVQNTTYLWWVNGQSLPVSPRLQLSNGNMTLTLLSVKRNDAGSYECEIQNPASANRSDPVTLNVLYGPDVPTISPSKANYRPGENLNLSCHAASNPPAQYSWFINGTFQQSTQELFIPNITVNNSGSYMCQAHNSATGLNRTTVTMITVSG
As to the kind of experiment: flow cytometry on 293T-huCEACAM6 cells. As for the experimental part:
(§1) Binding of recombinant anti-CEACAM5/6 dual-binding antibodies against human or cynomolgus CEACAM5 or CEACAM6 stable cells were detected by flow cytometry. […] Anti-CEACAM5/6 dual-binding antibodies were incubated with the stable cell lines. Anti-CEACAM5/6 dual-binding antibodies were serially diluted in staining buffer (PBS containing 2% FBS). 50 μL of diluted antibody solution was added to 50 μL of cell suspension containing 1-2×10⁵ cells and incubated at 4° C. for 1 hour. […] After 1-hour incubation at 4° C., cells were washed twice and run on a flow cytometer. […] The results were shown in FIGS. 8-10 and Tables 6 below.
Background: In flow cytometry, cells or beads pass a laser one at a time.

The target in experiment [3] is T2, human CEACAM6 on 293T cells …. As to the kind of experiment: cell-based or functional assay.
The target in experiment [4] is T3, human CEACAM3 protein (human, UniProt P40198 35-155).
T3 construct: Bought protein; also called huCEACAM3
T3 sequence (looked up): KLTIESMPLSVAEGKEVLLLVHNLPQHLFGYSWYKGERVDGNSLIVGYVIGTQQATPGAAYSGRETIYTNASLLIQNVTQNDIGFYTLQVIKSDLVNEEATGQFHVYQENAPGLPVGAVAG
As to the kind of experiment: ELISA, antigen coated on plate. The text has this:
(§2) Binding of recombinant anti-CEACAM5/6 dual-binding monoclonal antibodies against human and cynomolgus CEACAM5, and human CEACAM6 (Uniprot P40199), human CEACAM 1, 3 (NP_001806.2, Sino Biological 11933-H08H) and 8 (NP_001807.2, Acro Bio CE8-H5224) were detected by ELISA. Anti-CEACAM5/6 dual-antibodies were serially diluted in staining buffer (PBS containing 2% FBS). […] ELISA was used to test the binding between antibody containing supernatant or purified antibodies and the antigen. Briefly, the antigens were coated on a 96-well high binding plate overnight at 4° C. The plate was washed with PBST three times, incubated with blocking buffer (2% Bovine Serum Albumin) for one hour at 37° C., washed with PBST three times and incubated with antibody containing supernatant or purified antibodies at desired dilutions or concentrations for one hour at 37° C. A secondary antibody, anti-human Fc-HRP (Jackson Laboratory, 109-035-097) was used for detection of the targeted antibody. TMB and stopping solution were used for detection of HRP signal. The HRP signal was read on a SPECTRAMAX plate reader.

Experiment [5] addresses T4, human CEACAM1 protein (human, UniProt P13688 35-428).
T4 construct: also called huCEACAM1
T4 sequence (looked up): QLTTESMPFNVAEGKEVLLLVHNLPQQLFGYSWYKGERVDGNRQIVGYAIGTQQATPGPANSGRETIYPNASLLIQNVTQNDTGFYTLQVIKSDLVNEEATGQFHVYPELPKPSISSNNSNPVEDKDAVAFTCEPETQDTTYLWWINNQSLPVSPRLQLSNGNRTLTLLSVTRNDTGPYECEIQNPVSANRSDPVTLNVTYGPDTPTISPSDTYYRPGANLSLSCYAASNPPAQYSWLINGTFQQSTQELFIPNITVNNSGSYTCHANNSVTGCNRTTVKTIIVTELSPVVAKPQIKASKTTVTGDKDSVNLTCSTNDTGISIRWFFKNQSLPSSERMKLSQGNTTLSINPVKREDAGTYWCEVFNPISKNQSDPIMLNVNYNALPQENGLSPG
In words: ELISA, antigen coated on plate.
Description: as §2
A general note: An ELISA detects its analyte on a solid surface through an enzyme-linked reagent.

In experiment [6] the target is T5, cyno CEACAM5 protein (cynomolgus monkey).
T5 construct: also called cynomolgus CEACAM5
In words: ELISA, antigen coated on plate.
Description: as §2

Experiment [7] deals with T6, human CEACAM6 protein (human, UniProt P40199 35-320).
T6 construct: also called huCEACAM6
T6 sequence (looked up): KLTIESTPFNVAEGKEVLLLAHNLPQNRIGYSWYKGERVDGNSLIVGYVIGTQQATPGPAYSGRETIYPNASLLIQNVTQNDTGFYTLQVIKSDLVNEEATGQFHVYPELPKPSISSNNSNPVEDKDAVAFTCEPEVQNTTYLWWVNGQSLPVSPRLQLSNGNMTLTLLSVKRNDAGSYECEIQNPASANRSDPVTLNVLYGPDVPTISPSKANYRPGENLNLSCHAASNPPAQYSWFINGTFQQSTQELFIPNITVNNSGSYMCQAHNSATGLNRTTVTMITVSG
As to the kind of experiment: ELISA, antigen coated on plate.
Description: as §2

Experiment [8] addresses T7, human CEACAM8 protein (human, UniProt P31997 35-320).
T7 construct: Bought protein; also called huCEACAM8
T7 sequence (looked up): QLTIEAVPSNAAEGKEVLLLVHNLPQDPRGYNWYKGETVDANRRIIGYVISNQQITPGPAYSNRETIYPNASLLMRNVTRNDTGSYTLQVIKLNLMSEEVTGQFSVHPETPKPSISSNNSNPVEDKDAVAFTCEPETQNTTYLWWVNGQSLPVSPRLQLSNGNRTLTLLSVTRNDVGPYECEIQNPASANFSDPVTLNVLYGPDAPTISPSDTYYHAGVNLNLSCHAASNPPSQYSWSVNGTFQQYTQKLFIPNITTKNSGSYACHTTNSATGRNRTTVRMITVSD
As to the kind of experiment: ELISA, antigen coated on plate.
Description: as §2

Experiment [9] concerns the target T8, cynomolgus CEACAM5 on CHO-K1 cells (CHOK1-cyno CEACAM5 cells) (cynomolgus monkey).
T8 construct: whole, on cells; also called CHOK1-cynoCECAM5
As to the kind of experiment: flow cytometry on CHOK1-cyno CEACAM5 cells. As for the experimental part:
as §1

Experiment [10] concerns the target T2, human CEACAM6 on 293T cells …. In words: flow cytometry on 293T-huCEACAM6 cells with against without 100 nM soluble CEACAM6.
Experiment [11] shares this target. In words: flow cytometry on 293T-huCEACAM6 cells, Alexa Fluor 488 anti-human IgG, MFI. As for the experimental part:
as §1

The target of experiment [12] is T9, human CEACAM5 protein (human, UniProt P06731 35-685).
T9 construct: also called huCEACAM5
T9 sequence (looked up): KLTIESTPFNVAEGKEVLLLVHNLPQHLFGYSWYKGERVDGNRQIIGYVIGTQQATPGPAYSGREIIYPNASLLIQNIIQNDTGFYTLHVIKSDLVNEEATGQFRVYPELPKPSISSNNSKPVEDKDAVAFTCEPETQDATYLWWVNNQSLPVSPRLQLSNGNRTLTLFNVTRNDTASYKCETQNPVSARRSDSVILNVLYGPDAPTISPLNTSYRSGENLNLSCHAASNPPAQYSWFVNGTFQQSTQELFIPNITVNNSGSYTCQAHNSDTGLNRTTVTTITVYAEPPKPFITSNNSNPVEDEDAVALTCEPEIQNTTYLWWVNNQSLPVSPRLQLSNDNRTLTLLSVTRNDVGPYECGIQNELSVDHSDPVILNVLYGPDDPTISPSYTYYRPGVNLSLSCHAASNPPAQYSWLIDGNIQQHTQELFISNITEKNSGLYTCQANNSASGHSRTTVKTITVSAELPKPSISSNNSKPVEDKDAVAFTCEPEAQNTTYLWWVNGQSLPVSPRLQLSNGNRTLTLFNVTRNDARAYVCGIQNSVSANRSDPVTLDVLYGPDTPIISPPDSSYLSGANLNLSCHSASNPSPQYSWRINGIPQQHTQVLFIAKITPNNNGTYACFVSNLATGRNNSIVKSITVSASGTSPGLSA
As to the kind of experiment: ELISA, antigen coated on plate.
Description: as §2

B1: PR303561 (Tusamitamab) (antibody, human IgG1, kappa, V domains shown)
VH: EVQLQESGPGLVKPGGSLSLSCAASGFVFSSYDMSWVRQTPERGLEWVAYISSGGGITYAPSTVKGRFTVSRDNAKNTLYLQMNSLTSEDTAVYYCAAHYFGSSGPFAYWGQGTLVTVSS
VL: DIQMTQSPASLSASVGDRVTITCRASENIFSYLAWYQQKPGKSPKLLVYNTRTLAEGVPSRFSGSGSGTDFSLTISSLQPEDFATYYCQHHYGTPFTFGSGTKLEIKR
notes: also called PR003561; SAR408377
On to B1, for which the binding result in experiment [1], in experiment [2], in experiment [4], in experiment [5], in experiment [7] and in [8] was “no binding” each time. For the same molecule, the “Internalization of pHAb-dye-labelled antibody, MFI (37° C.-4° C.)/DAR” value in experiment [3] is 1260. Moreover, the EC50 in experiment [6] stood at 10 pM; in [9] it was 33400 pM.

B2: PR303563 (Tinurilimab) (antibody, human IgG2, kappa, V domains shown)
VH: QVTLRESGPALVKPTQTLTLTCTFSGFSLSTYGIGVGWIRQPPGKALEWLAHIWWNDNKYYSTSLKTRLTISKDTSKNQVVLTMTNMDPVDTATYYCARISLPYFDYWGQGTTLTVSS
VL: DIQLTQSPSFLSASVGDRVTITCKASQNVGTAVAWYQQKPGKAPKLLIYSASNRYTGVPSRFSGSGSGTEFTLTISSLQPEDFATYYCQQYSSYPLTFGGGTKVEIKR
notes: also called BAY-1834942
Regarding B2, in experiment [10], the “fold change of EC50 at the presence of 100 nM soluble protein” value turned out to be 7.3 fold. The “EC50 (read off the curve)” value in experiment [11] is around 600 pM. Moreover, the binding result in experiment [12], in experiment [4], in [5] and in [8] was “no binding” in each case. This molecule also showed an EC50 in experiment [7] of 10 pM.

Usually EC50 stands for the concentration giving half of the maximal effect. Low values mean an effect from little substance, high ones a need for much substance. What is called EC50 (read off the curve) is the concentration at which the effect is half-maximal. A high value points to a need for much substance.

Source of the values: patent publication US20260258125A1 (NONA BIOSCIENCES SUZHOU, published 2026).
